Data taken from PMC8964686.

Target: Escherichia coli RNA polymerase holoenzyme with σ^70, in the initially stalled complex (E. coli) (UniProt P00579)
UniProt P00579, sequence (P00579 whole entry, looked up, one chain of several): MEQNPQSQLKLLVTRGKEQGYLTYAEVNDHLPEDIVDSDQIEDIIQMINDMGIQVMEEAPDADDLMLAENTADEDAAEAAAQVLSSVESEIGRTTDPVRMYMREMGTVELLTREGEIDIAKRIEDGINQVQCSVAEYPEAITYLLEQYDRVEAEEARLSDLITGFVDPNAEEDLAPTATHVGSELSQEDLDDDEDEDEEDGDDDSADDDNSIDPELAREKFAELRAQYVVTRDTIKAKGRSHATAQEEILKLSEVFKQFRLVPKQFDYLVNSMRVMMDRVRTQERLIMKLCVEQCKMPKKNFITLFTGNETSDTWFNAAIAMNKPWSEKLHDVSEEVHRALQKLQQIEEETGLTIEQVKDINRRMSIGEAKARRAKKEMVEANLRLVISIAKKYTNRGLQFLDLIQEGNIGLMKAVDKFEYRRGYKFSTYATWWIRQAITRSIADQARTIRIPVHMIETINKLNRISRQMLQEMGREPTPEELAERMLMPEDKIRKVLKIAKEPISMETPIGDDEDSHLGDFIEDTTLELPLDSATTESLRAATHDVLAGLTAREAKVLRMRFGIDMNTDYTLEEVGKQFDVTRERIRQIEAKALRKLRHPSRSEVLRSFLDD

time constant of the decrease of stand-by TE as the interval between ISC washing and NTP injection is prolonged: 693 s
Substance: Rho (ρ) transcription termination factor, wild type (from UniProt P0AG30 1-419) (enzyme)
